Data published in patent US20200369728A1, “PEPTIDOMIMETIC MACROCYCLES AND USES THEREOF” (Aileron Therapeutics, Inc., priority 2015, published 2020).
Bridge positions count the residues as written; N and C are the ends. Square brackets hold non-standard residues; d marks the D form. R8 = C=CCCCCCC[C@@](C)(N)C(=O)O; Cba = N[C@@H](CC1CCC1)C(=O)O; S5 = C=CCCC[C@](C)(N)C(=O)O

T1: MDMX (In-house, 40 kD) (UniProt O15151 1-120, limits assumed)
T1 construct: also called MDM4
T1 sequence (looked up): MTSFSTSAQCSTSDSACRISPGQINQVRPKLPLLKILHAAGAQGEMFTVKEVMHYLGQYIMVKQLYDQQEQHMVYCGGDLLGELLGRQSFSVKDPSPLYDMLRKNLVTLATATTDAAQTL

T2: MDMX (In-house, 40 kD) (UniProt O15151 1-120, limits assumed)
T2 construct: Construct limits and any tag are unknown; also called MDM4
T2 sequence (looked up): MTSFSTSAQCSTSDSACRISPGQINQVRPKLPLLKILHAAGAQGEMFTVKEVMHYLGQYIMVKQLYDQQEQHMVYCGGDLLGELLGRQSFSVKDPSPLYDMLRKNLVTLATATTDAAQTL


What was measured:
MCF-7 = assay: WST-1 / MTT cell proliferation assay, MCF-7 (single agents and combinations); type: cell-based, human; settings: for IC50: Homo sapiens
Procedure: All media were supplemented with 10% (v/v) fetal calf serum, 100 units penicillin and 100 μg/ml streptomycin at 37° C. and 5% CO2. Prior to dosing, MCF-7 cells were switched to serum free medium and grown at 37° C. overnight.
One day prior to assaying, cells were trypsinized, counted and seeded at pre-determined densities in 96-well plates as follows: MCF-7, 5000 cells/well/200 μl; MOLT-3, 30,000 cells/well/200 μl. […] The WST-1 variant of the MTT assay was used to measure cell viability according to the manufacturer's protocol. WST-1 is a cell-impermeable, sulfonated tetrazolium salt that can be used to examine cell viability without killing the cells.
Combination index (CI) values were calculated using the CompuSyn software. The data were expressed as log(CI).
Cells were evaluated for viability by WST-1 assay or MTT assay 3-7 days after beginning the simultaneous treatments (FIGS. 25, 30 and 31).
Cells were evaluated for viability by WST-1 assay or MTT assay 3-7 days or 120 hrs after beginning treatment (FIGS. 24A and 35). […] Cells were evaluated for viability by WST-1 assay or MTT assay 3-7 days after beginning the simultaneous treatments (FIGS. 36 and 37).

MDMX (In-house, 40 kD) [1] = target: T1, MDMX (In-house, 40 kD); assay: competitive fluorescence polarization vs FAM-labeled linear peptide; column IC50 (MDMX); grade means >1000 nM
MDMX (In-house, 40 kD) [2] = target: T1, MDMX (In-house, 40 kD); assay: competitive fluorescence polarization vs FAM-labeled linear peptide; column Ki (MDMX); grade means >1000 nM
MDMX (In-house, 40 kD) [3] = target: T2, MDMX (In-house, 40 kD); assay: competitive fluorescence polarization, displacement of FAM-labeled linear peptide from MDMX; grade decoded by the scale of Table 4
MDM2 (In-house, 41 kD) = target: T3, MDM2 (In-house, 41 kD) (UniProt Q00987 1-125, limits assumed); assay: competitive fluorescence polarization, displacement of FAM-labeled linear peptide from MDM2; grade decoded by the scale of Table 4
T3 construct: Construct limits and any tag are unknown; also called HDM2
T3 sequence (Q00987 1-125 limits assumed): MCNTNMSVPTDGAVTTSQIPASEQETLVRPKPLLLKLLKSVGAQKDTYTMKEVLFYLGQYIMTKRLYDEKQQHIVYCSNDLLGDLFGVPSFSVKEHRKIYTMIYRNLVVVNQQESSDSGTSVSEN

IC50 (MDMX (In-house, 40 kD) [1])	Ki (MDMX (In-house, 40 kD) [2])	Ki (MDMX (In-house, 40 kD) [3])	Ki (MDM2 (In-house, 41 kD))	Molecule	also measured
				C[C@]12CC[C@@H]3c4ccc(O)cc4C[C@@H](CCCCCCCCC[S+]([O-])CCCC(F)(F)C(F)(F)F)[C@H]3[C@@H]1CC[C@@H]2O (stereo partly shown) [fulvestrant, reference compound]	IC50 (MCF-7; MCF7, FUL + 0.4 μM Aileron peptide 1, MCF-7): 0.261 nM; IC50 (MCF-7; MCF7, FUL alone, MCF-7): 0.768 nM; effect on MCF-7 cell proliferation (MCF-7; single agent, 5 days): inhibited MCF-7 breast cancer cell proliferation with limited cell killing as a single agent
> 1000 nM	> 1000 nM			ETFAEYWAQAASAA (not fully specified; N-terminal Pam cap (abbreviation not explained in the filing); $r8 = alpha-Me R8-octenyl-alanine and $ = alpha-Me S5-pentenyl-alanine joined by an all-carbon crosslinker; Cba = cyclobutyl alanine; C-terminal amide (NH2), also called Pam-ETF$r8EYWAQCba$SAA-NH2) [SP250]	
> 1000 nM	> 1000 nM			LTAAEYWAQAASAA (not fully specified; N-terminal acetyl (Ac); $r8 = alpha-Me R8-octenyl-alanine and $ = alpha-Me S5-pentenyl-alanine joined by an all-carbon crosslinker; Cba = cyclobutyl alanine; C-terminal amide (NH2), also called Ac-LTA$r8EYWAQCba$SAA-NH2) [SP252]	
		≤ 10 nM	≤ 10 nM	Ac-LTF[R8]EYWAQ[Cba][S5]AAA-NH2 (staple 4-11; also: single isomer iso2, stapled peptidomimetic macrocycle, isomer iso2) [SP716, Ac-LTF$r8EYWAQCba$AAA-NH2 (iso2)]	
		≤ 10 nM	≤ 10 nM	LTFAHYWAQAASAA (not fully specified; N-terminal acetyl; $r8 at 4 crosslinked by all-carbon olefin staple to $ at 11; Cba (cyclobutyl alanine) at 10; C-terminal amide; single isomer iso2, stapled peptidomimetic macrocycle, isomer iso2) [SP712, Ac-LTF$r8HYWAQCba$SAA-NH2 (iso2)]	
		≤ 10 nM	≤ 10 nM	LTFASYWAQAASAA (not fully specified; N-terminal acetyl; $r8 at 4 crosslinked by all-carbon olefin staple to $ at 11; Cba (cyclobutyl alanine) at 10; C-terminal amide; single isomer iso2, stapled peptidomimetic macrocycle, isomer iso2) [SP713, Ac-LTF$r8SYWAQCba$SAA-NH2 (iso2)]	
